Ends that are not written are not given here.

The source of these data is patent US20250134969A1 (CASE WESTERN RESERVE UNIVERSITY, published 2025).

The assay deals with T1, bovine serum albumin (bovine, UniProt P02769 25-607).
T1 construct: Negative control surface; also called BSA
Put plainly: BioFlux microfluidic adhesion, RhB-labeled “VBP+CBP”-decorated liposomes flowed at 25 dyn/cm^2 over albumin-coated channels, fluorescence microscopy. How it is done: The “VBP+CBP”-decorated nanoparticles and control (undecorated) nano-particles were evaluated for their specific adhesion capabilities utilizing a BioFlux 200 microfluidic system (Fluxion Biosciences) and observed under inverted fluorescence microscope imaging. This system allows simulation of a physiologically relevant vascular flow environment. Here, the microfluidic channels were incubated with either 0.3 wt % bovine serum albumin (BSA) in water or 40 μg/mL equine type 1 fibrillar collagen and 10 μg/mL vWF in 20 μM acetic acid for 1.5 h. Unbound albumin and collagen were removed with a saline rinse. […] Fluorescence microscopy imaging of particle Rhodamine B label was used to quantify the extent of particle adhesion to the coated surfaces. Thrombin release kinetics was measured by sealing the column-separated t-TLNPs in a MWCO 100 K dialysis bag, placing the bag in a TBS reservoir, and removing aliquots from the reservoir at predefined time points over the course of 6 h (fresh TBS was added back to the reservoir appropriately after each aliquot removal). […] Thrombin concentrations from the collected aliquots were evaluated using a human thrombin ELISA and plotted over time to determine the release profile. […]

T1 sequence (P02769 25-607 limits assumed): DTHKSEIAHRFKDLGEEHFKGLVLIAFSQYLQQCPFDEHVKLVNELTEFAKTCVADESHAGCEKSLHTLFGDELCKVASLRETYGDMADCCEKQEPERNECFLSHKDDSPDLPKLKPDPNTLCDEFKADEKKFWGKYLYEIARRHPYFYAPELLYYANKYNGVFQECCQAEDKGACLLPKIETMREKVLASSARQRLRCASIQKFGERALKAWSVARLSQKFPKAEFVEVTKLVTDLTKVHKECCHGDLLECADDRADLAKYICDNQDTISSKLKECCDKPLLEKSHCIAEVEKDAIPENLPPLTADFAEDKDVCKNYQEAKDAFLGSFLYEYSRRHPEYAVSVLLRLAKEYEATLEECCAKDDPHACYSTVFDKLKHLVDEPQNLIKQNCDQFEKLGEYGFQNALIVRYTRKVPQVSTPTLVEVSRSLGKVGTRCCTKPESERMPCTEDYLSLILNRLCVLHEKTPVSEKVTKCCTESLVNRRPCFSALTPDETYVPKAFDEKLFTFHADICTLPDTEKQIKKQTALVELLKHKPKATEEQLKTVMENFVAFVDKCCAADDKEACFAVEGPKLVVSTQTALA

B1: vWF-binding peptide (VBP), cysteinylated, CTRYLRIHPQSWVHQI, conjugated to DSPE-PEG2K and displayed on liposomal nanoparticles (peptide)
peptide: C(DSPE‑PEG2000‑maleimide)TRYLRIHPQSWVHQI
notes: In every adhesion assay the peptide stood on the surface of liposomes (1.25 mol % DSPE-PEG2K-VBP) together with CBP (1.25 mol %); also called DSPE-PEG2K-VBP
As for B1, the binding result is given as “no binding”.
